B1: C98C7 Fab (Fab, V domains shown)
VH: EVQLVESGGGLVQPGGSLRLSCAASGITVSSNYMSWVRQAPGKGLEWVSVIYSGGSTFYADSVKGRFTISRDNSKNTLYLQMSSLRAEDTAVYYCARDLVVFGMDVWGQGTTVTVSS
VL: EIVLTQSPGTLSLSPGETATLSCRASQSVGSSYLTWYQQKPGQAPRLLIYGASSRATGIPDRFSGSGSGTDFTLTISRLEPEDFAVYYCQHYGSSPTFGQGTKVEIK
B2: C98C7 Fab (Fab, V domains shown)
VH: B1 VH
VL: B1 VL
B3: G32Q4 Fab (Fab, V domains shown)
VH: QVQLVESGGGVVQPGRSLRLSCAASGFTFSRYAMQWVRQAPGKGLEWVAVISYDGNNRYYADSVKGRFTISRDNSKNTLYLQMNSLRAEDTAVYYCARGPPGYYDSSGYYQTPEYFQHWGQGTLVTVSS
VL: QSVLTQPPSVSGAPGQRVTISCTGSSSNIGVGYDVHWYQQFPGTVPKLLIYGNSNRPSGVPDRFSGSKSGTSASLAITGLQAEDEADYYCQSYDSSLSGVVFGGGTKLTVL
B4: G32Q4 Fab (Fab, V domains shown)
VH: B3 VH
VL: B3 VL

Assays:
Details in all cases: both partners purified
[1] = molecular target: T1, SARS-CoV-2 spike receptor-binding domain (RBD), Delta variant (SARS-CoV-2, Delta variant (B.1.617.2), L452R | T478K); test: BLI
T1 construct: not shown: His tag, C-terminal, kept

[2] = molecular target: SARS-CoV-2 spike hexapro, prefusion stabilized spike ectodomain trimer (SARS-CoV-2, Wuhan, UniProt P0DTC2, stabilised); test: cryo-EM structure
[3] = molecular target: T2, SARS-CoV-2 spike receptor-binding domain (RBD), Wuhan isolate (SARS-CoV-2, Wuhan, UniProt P0DTC2); test: BLI
T2 construct: not shown: His tag, C-terminal, kept

[4] = molecular target: T3, SARS-CoV-2 spike receptor-binding domain (RBD), Gamma variant (SARS-CoV-2, Gamma (P.1), E484K | N501Y); test: BLI
T3 construct: not shown: His tag, C-terminal, kept

[5] = molecular target: T4, SARS-CoV-2 spike receptor-binding domain (RBD), Alpha variant (SARS-CoV-2, Alpha variant (B.1.1.7), N501Y); test: BLI
T4 construct: not shown: His tag, C-terminal, kept

[6] = molecular target: T5, SARS-CoV-2 spike receptor-binding domain (RBD), Delta variant (SARS-CoV-2, Delta variant (B.1.617.2), L452R | T478K); test: BLI; remark: listed apart in the source
T5 construct: not shown: His tag, C-terminal, kept

[7] = molecular target: T6, SARS-CoV-2 spike receptor-binding domain (RBD), Gamma variant (SARS-CoV-2, Gamma variant (P.1), E484K | N501Y); test: BLI
T6 construct: not shown: His tag, C-terminal, kept

[8] = molecular target: T7, SARS-CoV-2 spike receptor-binding domain (RBD), Alpha variant (SARS-CoV-2, Alpha variant (B.1.1.7), N501Y); test: BLI; remark: listed apart in the source
T7 construct: not shown: His tag, C-terminal, kept

Row | Binder | Kd [1] [nM] | koff [1] [s⁻¹] | kon [1] [M⁻¹ s⁻¹] | binding result [2] | Kd [3] [nM] | Kd [4] [nM] | Kd [5] [nM] | Kd [6] [nM] | koff [7] [s⁻¹] | kon [7] [M⁻¹ s⁻¹] | koff [8] [s⁻¹] | kon [8] [M⁻¹ s⁻¹]
1 | B1 | 3.5 | 0.00099 | 280000 |  |  |  |  |  |  |  |  | 
2 | B2 |  |  |  | binds | 3 | 1 | 6 | 3 |  |  |  | 
3 | B3 |  | 0.0062 | 1.2e+06 |  |  |  |  |  | 0.0025 | 2e+06 | 0.007 | 930000
4 | B4 |  |  |  | binds | 57 | 13 | 75 | 53 |  |  |  | 

Source: paper PMC9097876 (Science Immunology, 2022)
